The values below come from patent US20260250718.

What all share (experiment): cell_activity
In series [1] the test system is T1, Cyin11 (metagenome (uncultured organism)).
T1 sequence: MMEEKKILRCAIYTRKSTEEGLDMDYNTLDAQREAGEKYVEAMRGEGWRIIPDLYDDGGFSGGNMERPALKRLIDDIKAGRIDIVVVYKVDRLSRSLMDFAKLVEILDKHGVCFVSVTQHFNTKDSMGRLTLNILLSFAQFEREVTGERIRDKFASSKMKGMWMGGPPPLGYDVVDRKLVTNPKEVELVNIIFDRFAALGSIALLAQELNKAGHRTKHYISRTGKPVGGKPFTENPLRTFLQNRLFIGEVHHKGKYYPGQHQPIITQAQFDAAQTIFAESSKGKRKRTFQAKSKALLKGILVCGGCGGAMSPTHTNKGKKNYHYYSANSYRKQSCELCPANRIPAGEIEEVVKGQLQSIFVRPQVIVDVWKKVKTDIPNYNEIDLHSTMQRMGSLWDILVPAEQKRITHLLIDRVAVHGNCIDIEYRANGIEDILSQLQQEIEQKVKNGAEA
The note with it: EGFP+ 293T cells at day 20.

For series [2], the system named is T2, Cyin14 (metagenome (uncultured organism)).
T2 sequence: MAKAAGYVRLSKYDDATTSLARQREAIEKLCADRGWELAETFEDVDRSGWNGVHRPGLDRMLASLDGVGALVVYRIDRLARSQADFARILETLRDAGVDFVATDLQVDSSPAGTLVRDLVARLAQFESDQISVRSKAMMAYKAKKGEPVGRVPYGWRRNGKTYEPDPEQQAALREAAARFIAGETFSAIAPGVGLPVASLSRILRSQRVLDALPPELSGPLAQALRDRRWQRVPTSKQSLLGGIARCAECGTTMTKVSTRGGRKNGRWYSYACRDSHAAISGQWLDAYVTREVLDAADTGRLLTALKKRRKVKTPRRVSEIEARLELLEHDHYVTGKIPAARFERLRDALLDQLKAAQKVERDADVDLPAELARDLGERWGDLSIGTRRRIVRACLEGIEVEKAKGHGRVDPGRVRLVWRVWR

Series [3] concerns T3, Cyin16 (metagenome (uncultured organism)).
T3 sequence: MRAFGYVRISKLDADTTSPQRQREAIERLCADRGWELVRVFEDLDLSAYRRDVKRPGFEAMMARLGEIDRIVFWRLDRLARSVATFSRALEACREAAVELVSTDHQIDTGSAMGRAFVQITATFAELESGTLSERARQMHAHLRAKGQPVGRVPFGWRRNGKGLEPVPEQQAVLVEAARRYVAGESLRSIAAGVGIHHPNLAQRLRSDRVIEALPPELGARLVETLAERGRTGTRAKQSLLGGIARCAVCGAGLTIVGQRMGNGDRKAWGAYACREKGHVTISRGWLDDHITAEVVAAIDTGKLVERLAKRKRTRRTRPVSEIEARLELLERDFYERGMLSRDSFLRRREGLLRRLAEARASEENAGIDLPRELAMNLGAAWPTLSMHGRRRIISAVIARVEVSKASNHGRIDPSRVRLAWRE
Conditions: EGFP+ 293T cells at day 20.

Series [4] has as its system T4, phiC31 integrase (Streptomyces phage phiC31?).
T4 sequence: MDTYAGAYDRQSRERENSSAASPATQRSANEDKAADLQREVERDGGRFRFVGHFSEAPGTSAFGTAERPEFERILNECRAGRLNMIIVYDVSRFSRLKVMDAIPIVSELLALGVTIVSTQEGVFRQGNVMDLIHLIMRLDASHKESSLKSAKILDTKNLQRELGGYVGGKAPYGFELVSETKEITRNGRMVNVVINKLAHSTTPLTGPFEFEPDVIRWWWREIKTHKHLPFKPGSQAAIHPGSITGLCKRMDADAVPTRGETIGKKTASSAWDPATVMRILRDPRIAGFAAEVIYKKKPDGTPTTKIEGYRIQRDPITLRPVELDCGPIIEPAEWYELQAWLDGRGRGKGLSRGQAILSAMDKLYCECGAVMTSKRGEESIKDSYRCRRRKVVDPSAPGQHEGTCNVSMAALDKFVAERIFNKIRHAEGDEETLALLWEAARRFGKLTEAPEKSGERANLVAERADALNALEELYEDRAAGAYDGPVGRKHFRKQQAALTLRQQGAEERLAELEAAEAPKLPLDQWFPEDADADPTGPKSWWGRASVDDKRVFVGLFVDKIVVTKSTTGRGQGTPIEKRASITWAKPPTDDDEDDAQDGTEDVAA
The note with it: positive control; EGFP+ 293T cells at day 20.

Series [5] deals with T5, Cyin12 (metagenome (uncultured organism)).
T5 sequence: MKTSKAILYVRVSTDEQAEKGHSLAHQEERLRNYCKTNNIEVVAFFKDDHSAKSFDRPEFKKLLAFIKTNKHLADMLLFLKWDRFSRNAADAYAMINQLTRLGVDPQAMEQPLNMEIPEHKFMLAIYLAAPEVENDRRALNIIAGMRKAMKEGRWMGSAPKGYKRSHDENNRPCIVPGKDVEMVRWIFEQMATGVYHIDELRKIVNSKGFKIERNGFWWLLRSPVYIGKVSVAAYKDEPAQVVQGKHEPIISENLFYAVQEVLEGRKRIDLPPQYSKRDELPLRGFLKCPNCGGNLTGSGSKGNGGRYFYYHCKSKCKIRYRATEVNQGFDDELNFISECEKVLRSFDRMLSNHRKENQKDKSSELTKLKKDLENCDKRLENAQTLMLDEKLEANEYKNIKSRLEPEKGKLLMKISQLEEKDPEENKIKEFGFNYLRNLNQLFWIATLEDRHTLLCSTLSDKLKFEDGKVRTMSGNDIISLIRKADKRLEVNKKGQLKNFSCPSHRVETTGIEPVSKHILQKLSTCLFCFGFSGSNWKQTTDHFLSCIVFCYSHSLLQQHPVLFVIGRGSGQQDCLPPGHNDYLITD
The note with it: EGFP+ 293T cells at day 20.

Series [6] relates to T6, Cyin15 (metagenome (uncultured organism)).
T6 sequence: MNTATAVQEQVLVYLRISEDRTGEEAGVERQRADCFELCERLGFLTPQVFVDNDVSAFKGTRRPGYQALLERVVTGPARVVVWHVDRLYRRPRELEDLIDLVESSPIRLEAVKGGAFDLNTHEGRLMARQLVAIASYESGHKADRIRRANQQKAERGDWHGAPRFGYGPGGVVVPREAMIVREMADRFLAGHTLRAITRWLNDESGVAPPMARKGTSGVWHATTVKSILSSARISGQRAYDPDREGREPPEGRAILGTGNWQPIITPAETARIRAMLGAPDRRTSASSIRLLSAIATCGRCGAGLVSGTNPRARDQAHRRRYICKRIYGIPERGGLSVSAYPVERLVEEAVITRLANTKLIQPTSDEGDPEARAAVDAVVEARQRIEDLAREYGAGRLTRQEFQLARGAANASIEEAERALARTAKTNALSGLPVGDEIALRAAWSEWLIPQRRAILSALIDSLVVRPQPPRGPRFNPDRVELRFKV
Conditions: EGFP+ 293T cells at day 20.

On to “ATCCAATGTGCAAGGCCATTTAGATGTCGCTTTGGCAAACACACTCGGCCGTTTGTGTCATGAATTATAATATCAGACATGCTACTGAAAAAGATTTATCTGCACTTTGCGATATTGAACATGAATCTTTATTTCCCAAACCAAAAAATGCGTTACCGTTCCAGCGCGTGCCGGTAATTGCAAATGCGACACCAGATAGGCTTTTATATTTCAGCCCCTGATATTCATAGCCGTCAGCCAGCACATACACAT (double strand) [11-B1]”, for which, in series [1], the activity is 1.78%. “ACGTATACTGGCGTACACTGATCAAGGAGGGGCCATGGCCAAGGCAGCCGGGTACGTCAGGCTCAGCAAGTACGACGACGCCACCACTAGTCTCGCCCGCCAGCGTGAGGCCATCGAAAAGCTGTGCCCGGCTCTGGGATCGCCTCACCGAGATCGAGCCGCACGCGTTCGAACCGGTGGAGACGAGGTGAAGCCGAACAGGGTCGCGCTCTATCTCCAAGACAAGCACCCCCTCCGCGAGGGGATGAAGTA (double strand) [14-B1]”: the activity in series [2] (EGFP+ 293T cells at day 20) stood at 1.38%. For the sequence “TGCCGGCCAGTGCCGTCTCGGAGGTGGTGAACCAGGTTTCGGATGAAGTCGTCGGCCTCGGTCCCATCGAGCGATTGCTCAAGGACCCGGAGATCAGCGAGGTGATGGTGAACGGGGCCGACGACGTGGTCGTCGACCAGGAGGACCTTCACGAGGCCGCCTCTCGCAACGGGAACCGGGCCACGACCCGCGTGCCCTTCCCCGGCCGCGGATAGACGTAGAGCCTGCCCCCAGCCTCCCGCACGCGGCGGCG (double strand) [16-B2]”, in series [3] (significantly above no-integrase control), the activity worked out at 4.23%. On to “GTCGACGATGTAGGTCACGGTCTCGAAGCCGCGGTGCGGGTGCCAGGGCGTGCCCTTGGGCTCCCCGGGCGCGTACTCCACCTCACCCATCTGGTCCATCATGATGAACGGGTCGAGGTGGCGGTAGTTGATCCCGGCGAACGCGCGGCGCACCGGGAAGCCCTCGCCCTCGAAACCGCTGGGCGCGGTGGTCACGGTGAGCACGGGACGTGCGACGGCGTCGGCGGGTGCGGATACGCGGGGCAGCGTCAGCGGGTTCTCGACGGTCACGGCGGGCATGTCGAC (double strand) [phiC31 attB]”, for which, in series [4], the activity came out at 8.87%. “AGCGCCACTTCGTGTGGGGCGTGTTGGAGGATCTCCAAAGCCTCTTCGGCTGAGCCCGCCTCCGTGACGTCGGCGCCCTCCACGCAGTTCTGCAGGACCTGGATGAGGCCCTTTCGAACCAGCGTGTGTACGTGGAGCGGAAGGGGCCGATTATTGACTGAACCGTAGACCAGCCCTATGCTGCTATGGCCGACCAGAGGAGGGGGAGCCATGCGCGCCTTCGGCTACGTCCGGATCTCCAAGCTCGACGCCG (double strand) [16-P2]” showed an activity in series [3] of 2.33%. For the sequence “GGGTATTCGGCCTCTCTCCCCGTCACGTCCGCGACGTCTTCGTCGCCGGGGAGCTGGTGGTGGAAGACCGGCGGCCAACGCGGGTCCAGCCGGAGGACATCGTCTGGGACGCCGCCGCGGAGGCCGCGCCGACCGCGGCTGGGAGCTCGCCGAGACCTTCGAGGACGTGGACCGCTCCGGGTGGAACGGGGTTCACCGGCCCGGGCTCGACCGGATGCTGGCCTCACTCGACGGCGTTGGCGCGCTGGTCGT (double strand) [14-P1]”, the activity in series [2] (EGFP+ 293T cells at day 20, donor plasmid integration into genome, significantly above no-integrase control) stood at 10.1%. Sequence “TTGTCTTCCTCTGCAGTCAATTGTTTTGGATCATCTTTTTTGGGAACAACAAGATTACTTTGAACATTATCTCTATTTACACCGGTTGAAACCTGGTCCTTCTTATTAAGAACTTCTGTATTTGTCAAAGCAATTCTTTATGTCAGAGTGAGTACAGACGAACAGGCTGAAAAAGGTCACAGTCTGGCTCATCAGGAAGAACGACTTCGTAATTATTGCAAAACAAATAATATCGAGGTCGTTGCTTTTTTTA (double strand) [12-P1]” came in with an activity in series [5] of 1.53%. In series [6], “GGAATCAGCCGGGGCTTCTCGGCCGTCAACATCCGCAAGTTCGTGGTGCGAGCATCGCGCCTGTCGGAGCTGGTCGATCTGCAGAGCCTCACGCCGTCCGCGGCCCTGTTCCTCGAGGCATCCATCCGGGACGACGGCCCCGGAGAGCGATCCCGCTGTGAGCAGGCCGCCCTCGGCAATGTCGAGCGCCGCATGCTGGCCGACCACCTGTTCGATCTCGCTTGCGAGCACCGGCTTCACCGCTGGGTCCGCGCT (double strand) [15-B2]” yielded an activity of 1.12%. Consider “TCGATTCGGTTCGCCGCGCCGCTACCGGATCGCGCCGAAGAGATGACTGATCTCGAGGCTCCGGCCCGAAGGCCTCCTCAACGGCTTCGAGGATCGATTCGGCGCGCACGGGTGCCTCTCTCCGCGCGCCAGCGCGAGGCAATCGAGCGCCTCTGTGCTGACCGCGGGTGGGAGCTCGTTCGAGTCTTCGAGGATCTCGACCTCTCGGCCTACCGCCGCGACGTGAAGCGGCCGGGCTTCGAGGCCATGATGG (double strand) [16-P1]”, for which the activity in series [3] was 1.69%.
